Assay [1] addresses PDGFRα (Homo sapiens) (UniProt P16234). Particulars: cited from earlier work.
Target sequence in this assay (P16234 24-528): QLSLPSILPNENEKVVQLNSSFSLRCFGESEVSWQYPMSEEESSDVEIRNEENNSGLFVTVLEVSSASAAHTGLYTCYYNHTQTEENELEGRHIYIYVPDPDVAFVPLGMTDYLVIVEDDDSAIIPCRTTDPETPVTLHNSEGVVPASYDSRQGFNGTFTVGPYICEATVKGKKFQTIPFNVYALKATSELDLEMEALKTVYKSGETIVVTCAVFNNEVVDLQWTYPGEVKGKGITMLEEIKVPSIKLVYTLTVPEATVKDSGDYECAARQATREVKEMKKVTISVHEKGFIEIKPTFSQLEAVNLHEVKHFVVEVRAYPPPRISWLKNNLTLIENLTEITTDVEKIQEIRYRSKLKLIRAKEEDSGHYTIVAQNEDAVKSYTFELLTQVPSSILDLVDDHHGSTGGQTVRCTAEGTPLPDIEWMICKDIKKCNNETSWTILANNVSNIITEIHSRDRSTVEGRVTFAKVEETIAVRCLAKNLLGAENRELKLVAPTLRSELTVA
The target is the same in assay [2]. Particulars: cited from earlier work. This is another data set of the same source.
Target sequence in this assay (P16234 24-528): as above
Assay [3] deals with VEGFR1 (Homo sapiens) (UniProt P17948). Put plainly: SPR. Particulars: cited from earlier work.
In assay [4] the target is VEGFR2 (Homo sapiens) (UniProt P35968). Put plainly: SPR. Conditions: cited from earlier work.
In assay [5] the target is PDGFRα (Homo sapiens) (UniProt P16234). Put plainly: SPR; BIAcore 3000, 25 °C, CM5 chip; receptor immobilised by amine coupling (~200-500 R.U.); ligand injected at 10, 20 and 40 nM, 30 uL/min, 10 min dissociation; HBS-EP pH 7.4 (10 mM HEPES, 3 mM EDTA, 150 mM NaCl, 0.005% TWEEN-20); angiopoietin-4 reference cell subtracted; global 1:1 Langmuir fit; χ2-to-Rmax > 1.0 or negative association curves taken as no true interaction. A general note: In SPR one partner is held on a chip, and binding of the other changes the refractive index at the surface.
Target sequence in this assay (P16234 24-1089): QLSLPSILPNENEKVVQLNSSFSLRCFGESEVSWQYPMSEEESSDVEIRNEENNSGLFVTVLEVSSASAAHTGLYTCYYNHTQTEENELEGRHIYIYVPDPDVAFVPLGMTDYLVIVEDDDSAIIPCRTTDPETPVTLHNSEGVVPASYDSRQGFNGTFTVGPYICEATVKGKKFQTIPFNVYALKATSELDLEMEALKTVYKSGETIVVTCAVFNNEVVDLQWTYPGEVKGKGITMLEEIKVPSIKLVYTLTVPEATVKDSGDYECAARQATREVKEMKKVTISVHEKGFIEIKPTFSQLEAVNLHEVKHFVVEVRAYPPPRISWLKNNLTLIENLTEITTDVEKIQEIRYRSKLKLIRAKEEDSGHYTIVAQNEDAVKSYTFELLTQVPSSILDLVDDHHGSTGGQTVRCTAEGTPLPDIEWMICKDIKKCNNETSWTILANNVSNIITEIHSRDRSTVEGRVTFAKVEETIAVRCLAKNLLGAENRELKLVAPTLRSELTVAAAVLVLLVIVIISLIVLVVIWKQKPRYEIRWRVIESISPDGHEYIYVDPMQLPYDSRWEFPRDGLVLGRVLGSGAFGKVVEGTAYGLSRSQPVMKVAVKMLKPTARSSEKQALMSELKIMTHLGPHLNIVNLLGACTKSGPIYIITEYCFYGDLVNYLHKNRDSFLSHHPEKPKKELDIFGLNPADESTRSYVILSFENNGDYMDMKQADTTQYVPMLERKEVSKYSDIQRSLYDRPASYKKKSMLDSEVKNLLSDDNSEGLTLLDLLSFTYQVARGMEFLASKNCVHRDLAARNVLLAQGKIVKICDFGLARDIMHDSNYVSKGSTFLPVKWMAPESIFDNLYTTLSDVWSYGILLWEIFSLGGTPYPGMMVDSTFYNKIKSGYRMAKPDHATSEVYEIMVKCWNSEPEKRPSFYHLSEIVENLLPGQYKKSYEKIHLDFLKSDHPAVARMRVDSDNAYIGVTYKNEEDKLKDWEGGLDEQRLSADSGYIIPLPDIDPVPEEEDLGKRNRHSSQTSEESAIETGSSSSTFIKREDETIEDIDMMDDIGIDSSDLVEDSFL

Assay [6] concerns the target human recombinant PDGFRβ (human) (UniProt P09619). The description is as above.
Assay [7] has as its target VEGFR1 (Homo sapiens) (UniProt P17948). Put plainly: SPR; BIAcore 3000, 25 °C, CM5 chip; receptor immobilised by amine coupling (~200-500 R.U.); ligand injected at 40, 20 and 10 nM in HBS-EP pH 7.4 (10 mM HEPES, 3 mM EDTA, 150 mM NaCl, 0.005% TWEEN-20); angiopoietin-4 reference cell subtracted; global 1:1 Langmuir fit; χ^2-to-Rmax < 1.0 taken as a true interaction.
Target sequence in this assay (P17948 27-758): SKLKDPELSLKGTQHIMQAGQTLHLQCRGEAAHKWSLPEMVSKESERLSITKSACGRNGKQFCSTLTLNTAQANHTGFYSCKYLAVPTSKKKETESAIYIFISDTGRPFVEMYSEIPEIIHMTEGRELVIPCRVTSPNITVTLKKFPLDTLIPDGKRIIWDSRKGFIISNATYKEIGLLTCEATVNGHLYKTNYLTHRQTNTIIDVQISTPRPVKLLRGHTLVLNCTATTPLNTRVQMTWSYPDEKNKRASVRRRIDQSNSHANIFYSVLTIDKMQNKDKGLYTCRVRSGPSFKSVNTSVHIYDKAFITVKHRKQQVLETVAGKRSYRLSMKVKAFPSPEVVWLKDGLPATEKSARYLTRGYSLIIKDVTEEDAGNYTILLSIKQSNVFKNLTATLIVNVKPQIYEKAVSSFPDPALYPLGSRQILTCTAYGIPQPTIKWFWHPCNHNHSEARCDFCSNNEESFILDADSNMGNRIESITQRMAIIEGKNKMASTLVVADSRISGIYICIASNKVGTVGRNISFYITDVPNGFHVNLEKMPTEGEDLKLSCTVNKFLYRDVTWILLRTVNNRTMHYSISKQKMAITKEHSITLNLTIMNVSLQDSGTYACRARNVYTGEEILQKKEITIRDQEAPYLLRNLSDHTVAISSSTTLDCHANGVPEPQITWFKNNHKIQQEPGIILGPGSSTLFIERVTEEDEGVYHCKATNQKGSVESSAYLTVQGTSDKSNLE
Assay [8] addresses VEGFR2 (Homo sapiens) (UniProt P35968). The assay is described as above.
Target sequence in this assay (P35968 20-764): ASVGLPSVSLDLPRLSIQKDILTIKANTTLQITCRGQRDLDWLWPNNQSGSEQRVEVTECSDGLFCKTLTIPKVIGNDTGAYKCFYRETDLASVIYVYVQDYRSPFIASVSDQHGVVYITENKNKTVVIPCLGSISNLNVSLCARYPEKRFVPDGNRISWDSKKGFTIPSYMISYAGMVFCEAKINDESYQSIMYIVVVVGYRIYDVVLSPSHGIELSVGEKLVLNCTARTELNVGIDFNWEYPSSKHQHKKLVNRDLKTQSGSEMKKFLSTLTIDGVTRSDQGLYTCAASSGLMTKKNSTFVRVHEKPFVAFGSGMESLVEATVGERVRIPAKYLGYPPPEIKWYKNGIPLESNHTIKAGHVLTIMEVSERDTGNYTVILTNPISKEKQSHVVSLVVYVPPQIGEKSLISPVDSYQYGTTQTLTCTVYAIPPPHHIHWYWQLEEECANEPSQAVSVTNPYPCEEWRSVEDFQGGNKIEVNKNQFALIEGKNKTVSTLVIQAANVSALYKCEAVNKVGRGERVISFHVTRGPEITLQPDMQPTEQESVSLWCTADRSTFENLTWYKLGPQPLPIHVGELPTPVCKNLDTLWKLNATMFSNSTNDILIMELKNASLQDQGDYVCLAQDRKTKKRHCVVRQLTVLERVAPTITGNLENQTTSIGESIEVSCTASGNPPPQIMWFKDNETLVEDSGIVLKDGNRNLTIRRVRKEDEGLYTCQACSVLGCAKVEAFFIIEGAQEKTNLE
For assay [9], the target named is VEGFR1 (Homo sapiens) (UniProt P17948). Put plainly: SPR; BIAcore 3000, 25 °C, CM5 chip; receptor immobilised by amine coupling (~200-500 R.U.); ligand injected at 10, 20 and 40 nM, 30 uL/min, 10 min dissociation; HBS-EP pH 7.4 (10 mM HEPES, 3 mM EDTA, 150 mM NaCl, 0.005% TWEEN-20); angiopoietin-4 reference cell subtracted; global 1:1 Langmuir fit; χ2-to-Rmax > 1.0 or negative association curves taken as no true interaction.
Target sequence in this assay (P17948 27-758): as the sequence (P17948 27-758) above

Assay [10] concerns the target VEGFR2 (Homo sapiens) (UniProt P35968). The description is as above.
Target sequence in this assay (P35968 20-764): as the sequence (P35968 20-764) above

Where two headings read alike, the source gives them in different places.

Sequence of human recombinant PDGFRβ (human) (P09619 33-1106): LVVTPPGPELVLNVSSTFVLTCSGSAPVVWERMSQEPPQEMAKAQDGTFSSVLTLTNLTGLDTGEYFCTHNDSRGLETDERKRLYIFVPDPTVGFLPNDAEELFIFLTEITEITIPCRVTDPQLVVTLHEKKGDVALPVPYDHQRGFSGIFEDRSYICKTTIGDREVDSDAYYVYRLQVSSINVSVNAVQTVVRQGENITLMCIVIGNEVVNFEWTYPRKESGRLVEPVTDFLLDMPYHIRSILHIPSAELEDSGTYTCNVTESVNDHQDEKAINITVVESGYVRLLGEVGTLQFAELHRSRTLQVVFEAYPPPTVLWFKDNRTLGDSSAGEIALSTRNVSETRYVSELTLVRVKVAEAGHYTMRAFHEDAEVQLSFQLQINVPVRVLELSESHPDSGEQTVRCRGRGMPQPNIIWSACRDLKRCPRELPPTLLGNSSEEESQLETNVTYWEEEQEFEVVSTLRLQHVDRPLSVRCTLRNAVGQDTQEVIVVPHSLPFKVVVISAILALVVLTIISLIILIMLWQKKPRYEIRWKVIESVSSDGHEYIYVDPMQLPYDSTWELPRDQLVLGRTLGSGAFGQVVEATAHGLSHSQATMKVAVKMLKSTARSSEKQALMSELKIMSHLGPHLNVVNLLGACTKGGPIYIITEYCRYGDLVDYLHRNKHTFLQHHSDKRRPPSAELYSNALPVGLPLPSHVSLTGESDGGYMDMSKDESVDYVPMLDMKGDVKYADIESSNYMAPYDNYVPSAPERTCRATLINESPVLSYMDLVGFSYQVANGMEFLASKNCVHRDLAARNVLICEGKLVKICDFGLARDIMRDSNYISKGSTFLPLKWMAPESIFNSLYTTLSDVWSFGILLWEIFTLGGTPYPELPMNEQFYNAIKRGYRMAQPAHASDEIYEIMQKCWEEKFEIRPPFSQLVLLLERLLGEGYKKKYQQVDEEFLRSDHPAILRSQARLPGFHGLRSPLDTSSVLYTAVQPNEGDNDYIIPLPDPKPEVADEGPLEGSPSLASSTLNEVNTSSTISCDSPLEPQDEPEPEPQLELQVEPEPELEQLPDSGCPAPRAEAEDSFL
Sequence of VEGF-A (P15692 whole entry): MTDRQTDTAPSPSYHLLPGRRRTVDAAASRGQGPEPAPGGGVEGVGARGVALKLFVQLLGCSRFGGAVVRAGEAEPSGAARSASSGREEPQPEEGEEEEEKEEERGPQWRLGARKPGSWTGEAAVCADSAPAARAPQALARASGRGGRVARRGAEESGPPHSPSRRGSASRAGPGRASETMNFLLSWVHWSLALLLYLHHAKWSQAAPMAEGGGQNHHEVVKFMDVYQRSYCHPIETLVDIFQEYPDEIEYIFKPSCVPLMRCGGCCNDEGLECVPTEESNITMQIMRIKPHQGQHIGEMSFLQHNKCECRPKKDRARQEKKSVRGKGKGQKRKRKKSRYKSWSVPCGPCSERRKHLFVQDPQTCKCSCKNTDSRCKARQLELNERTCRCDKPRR

Consider PDGF-AA (from UniProt P04085), for which the Kd (in general, a measure of binding affinity in units of concentration) in the assay with PDGFRα (Homo sapiens) [1] was 134 nM.
As to PDGF-BB (from UniProt P01127), the Kd in the assay with PDGFRα (Homo sapiens) [2] was 150 nM.
In the case of VEGF-A (from UniProt P15692), the Kd is 0.0075 nM in the assay with VEGFR1 (Homo sapiens) [3] and 0.052 nM with VEGFR2 (Homo sapiens) [4].
Turning to “human recombinant PDGF-AA (from UniProt P04085 87-211) (ligand)”, in the assay with PDGFRα (Homo sapiens) [5], the koff (commonly the first-order rate constant of dissociation) amounted to 0.00045 s⁻¹ and the kon (usually a measure of how fast the partners come together) stood at 680 M⁻¹ s⁻¹.
Regarding “human recombinant PDGF-AB (from UniProt P04085 87-211; P01127 82-190) (ligand)”, the koff in the assay with PDGFRα (Homo sapiens) [5] amounted to 0.001 s⁻¹; in assay [6], 0.0029 s⁻¹. Besides, the kon in the assay with PDGFRα (Homo sapiens) [5] was 1200 M⁻¹ s⁻¹; in [6] it was 1300 M⁻¹ s⁻¹.
“human recombinant VEGFA (from UniProt P15692 1-395) (ligand)”: the Kd with VEGFR1 (Homo sapiens) [7] stood at 0.001 nM; in the assay with VEGFR2 (Homo sapiens) [8], 0.0098 nM. The kon in the assay with VEGFR2 (Homo sapiens) [8] is 1e+06 M⁻¹ s⁻¹; in [6], 12000 M⁻¹ s⁻¹; with VEGFR1 (Homo sapiens) [9], 400000 M⁻¹ s⁻¹; with VEGFR2 (Homo sapiens) [10], 970000 M⁻¹ s⁻¹. Besides, the koff is 4e-06 s⁻¹ in assay [6], 4e-07 s⁻¹ in the assay with VEGFR1 (Homo sapiens) [9] and 9.5e-06 s⁻¹ in the assay with VEGFR2 (Homo sapiens) [10].

Values taken from article PMC5704011.
